The source of these data is publication PMC4893650 (Theranostics, 2016).

In this assay the target is purified HER2 protein (human epidermal growth factor receptor-2) (human, UniProt P04626 23-652). Description: SPR.

CDTFPYLGWWNPNEYRY [peptide P51] came in with a Kd of 18.6 nM.
